The record followed here is the supplement of paper PMC9170038.

Series [1] has as its system MS2 coat protein. Nature of the series: apparent KD of MS2 coat protein, switch ON state; designed switch direction (-1 OFF switch, 1 ON switch): -1; higher = weaker reporter binding. The settings on record: FMN input: 0 or 200 uM; Eterna round: R93 (includes R88 designs). In outline: (§1)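 On-chip transcription from Illumina sequencing clusters produced the designed RNA switches. These were titrated with SNAP-549-labelled MS2 coat protein (twofold steps, 0.7 or 1.5 nM to 3 µM) in 100 mM Tris-HCl pH 7.5, 80 mM KCl, 4 mM MgCl2, with or without constant ligand. The apparent KD given is the per-design median of normalised cluster binding-curve fits.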

Series [2] concerns MS2 coat protein. Nature of the series: apparent KD of MS2 coat protein, switch OFF state (with FMN for OFF switches, without FMN for ON switches); designed switch direction (-1 OFF switch, 1 ON switch): -1; higher = weaker reporter binding. The settings on record: FMN input: 0 or 200 uM; Eterna round: R93 (includes R88 designs). A digest of the protocol: as §1
Series [3] deals with MS2 coat protein. Nature of the series: apparent KD of MS2 coat protein; designed switch direction (-1 OFF switch, 1 ON switch): 1; higher = weaker reporter binding. A digest of the protocol: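 Designed RNA switches with common flanks were made on Illumina chips by stalled E. coli RNA polymerase. Titration with SNAP-549-labelled MS2 coat protein doubled from 0.7 or 1.5 nM up to 3 µM. Apparent KD is each design's median over clusters after curve-fitting normalised fluorescence.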

The mark [4] stands for this setting: input ligand: microRNA oligo, concentration not stated.
[5] abbreviates: Eterna round: R95, input ligand: FMN 200 uM.
The mark [6] stands for this setting: Eterna round: R95, input ligand: microRNA oligo, concentration not stated.
The mark [7] stands for this setting: Eterna round: R95, input ligand: none.

For the sequence “AAAAAAAGAGGAUAUACGUACAUGUCAAAAGACGUGAAGGGACAUGAGGAUCACCCAUGUAGAAGGUUUAAAAA [JL Wide Open 30]”, the “apparent KD of MS2 coat protein” value in series [1] amounted to 35.5 nM; in series [2], 16.3 nM.
Taken in the same sequence, the figures for “AAAAAACAUGAGGAUCACCCAUGUAAGGAUAUCCAAAAGAAAAGAAAAGAAAGAAGAAGGAGAAGGUACAAGAA [Sahure]” were 41.1 nM and 32.4 nM.
Taken in the same sequence, the figures for “AAAAAACAUGAGGAUCACCCAUGUAAGGAUAUCUAAAAUAAAAGAAAAAUAAAGAAAAGGAGAAGGUAUAUGAA [JL wbt mod 20]” were 19.8 nM and 25.7 nM.
Take “UUAAUAAUGAUAGGAUAUACAUGAGGAAUCCUCGUAGAAGGAUCAUGACAUGAGGAUCACCCAUGUAACGCUCAGAAGAGCGUA [Mat - Same State NG 1 - JL mod - D43] (Eterna round: R96, puzzle: Same State NG 1)”: the “apparent KD of MS2 coat protein” value is 738 nM in series [3] (input ligand: FMN 200 uM), 30.9 nM in series [3] (setting [4]) and 516 nM in series [3] (input ligand: none).
Taken in the same sequence, the figures for “UUAAUAAUGAUAGGAUAUACAUGAGGAAUUCUCGUAGAAGGAUCAUGACAUGAGGAUCACCCAUGUAACGCUCGAAAGAGCGUA [Mat - Same State NG 1 - JL mod - D39] (Eterna round: R96, puzzle: Same State NG 1)” were 513 nM, 394 nM and 662 nM.
Taken in the same sequence, the figures for “UUAAUGAAGUAAGGAUAUACAUGAGGAUCACUCGUAGAAGGUACUAUACAUGAGGAUCACCCAUGUUCCGGUCCGUAGACUGGA [JL SSNG1 1.02] (Eterna round: R96, puzzle: Same State NG 1)” were 1600 nM, 236 nM and 841 nM.
With “UUAAUGAUGAUAGGAUAUACAUGAGGAAUUCUCGUAGAAGGAUCAUGACAUGAGGAUCACCCAUGUAUCGCUCGAUAGAGCGUA [Mat - Same State NG 1 - JL mod - D34] (Eterna round: R96, puzzle: Same State NG 1)”, the “apparent KD of MS2 coat protein” value worked out at 844 nM in series [3] (input ligand: FMN 200 uM), 142 nM in series [3] (setting [4]) and 158 nM in series [3] (input ligand: none).
Consider “UUAAUGAUGUAAGGAUAUACAUGAGGAUUUCUCGUAGAAGGUACAAGACAUGAGGAUCACCCAUGUGUCGCUCGAAAGAGCGUA [Mat - Same State NG 1 - JL mod - D20] (Eterna round: R96, puzzle: Same State NG 1)”, for which the “apparent KD of MS2 coat protein” value in series [3] (input ligand: FMN 200 uM) amounted to 282 nM; in series [3] (setting [4]), 113 nM; in series [3] (input ligand: none), 316 nM.
Taken in the same sequence, the figures for “UUAAUUUACUGAGGAUAUCGUGUCGACUGAGGUGACAUGAGGAUCACCCAUGUGAGAAGUGGUAUCGAGAAGGCAGUAUUCAUA [JR_SSNG2_Sub022] (Eterna round: R96, puzzle: Same State NG 2)” were 92.6 nM, 306 nM and 506 nM.
Taken in the same sequence, the figures for “UUACAGUGCGGGUAGGAUAUGUAGGGUGGUACAUGAGGAUCACCCAUGUAUCCACCCUUCGACCGGCAGAAGGGCCUGUCACUAC [Atarzale] (Eterna round: R96, puzzle: Same State 2)” were 14 nM, 12.1 nM and 19.8 nM.
Consider “UUACUCAUGUAAGGAUAUGCAGCCGAAACGGCUGCAGAAGGUACUAUAAUACAUGAGGAUCACCCAUGUCUUUUUAAUUUAGAC [Mat - Same State NG 1 - JL mod - D82] (Eterna round: R96, puzzle: Same State NG 1)”, for which, in series [3] (setting [4]), the “apparent KD of MS2 coat protein” value came out at 37 nM.
“UUAGUCAUGUAAGGAUAUGCAGCCGUUUCGGCUGCAGAAGGUACUAUAAUUACAUGAGGAUCACCCAUGUUAUAAAAUUUAUAU [JL SSNG1 1.24] (Eterna round: R96, puzzle: Same State NG 1)”: the “apparent KD of MS2 coat protein” value in series [3] (input ligand: FMN 200 uM) was 19.9 nM; in series [3] (setting [4]) it was 25 nM; in series [3] (input ligand: none), 36.6 nM.
Regarding “UUAUAACAUGAGGAUCACCCAUGUCAACAAAGUCGAGGAUAUGGGCAUAGAGGAUAAGAACCAGAAGGCGAAUAUU [Mat - Same State 1 - Mod of UCT - D39] (puzzle: Same State 1)”, the “apparent KD of MS2 coat protein” value in series [3] (setting [5]) worked out at 70.8 nM; in series [3] (setting [6]), 150 nM; in series [3] (setting [7]) it was 163 nM.
As for “UUAUCUUUCCGAGGAUAUCCAUAUAAUUUACAUGAGGAUCACCCAUGUUAUUGGGAGUUUUUUUAGGAGAAGGCGGUUGUAGAU [JR_SSNG2_Sub051] (Eterna round: R96, puzzle: Same State NG 2)”, the “apparent KD of MS2 coat protein” value in series [3] (input ligand: FMN 200 uM) stood at 85.1 nM; in series [3] (setting [4]), 61.4 nM; in series [3] (input ligand: none), 71.1 nM.
With “UUCACCUUAUUUUACAUGAGGAUCACCCAUGUUUUUUUUACGUAGGAUAUCGAUGCUUGUUUAUUCGAGAAGGACGAUGUAAGU [JR_SSND3_Sub053] (Eterna round: R96, puzzle: Same State NG 3)”, in series [3] (setting [4]), the “apparent KD of MS2 coat protein” value is 28 nM.
For the sequence “UUGAACAAUUAAGGAUAUCGAGUACAUAUGUUAAACAUGAGGAUCACCCAUGUGGGUUGCGGUAUCGAGAAGGUAAAUUAGAAG [Mat - Same State NG 2 - JL mod - D57] (Eterna round: R96, puzzle: Same State NG 2)”, the entries for the “apparent KD of MS2 coat protein” value in series [3] (input ligand: FMN 200 uM), in series [3] (setting [4]) and in series [3] (input ligand: none) were 22.8 nM, 25.3 nM and 34 nM, respectively.
With “UUGAAGAAUUAAGGAUAUCGAGUACAUAUGUUAAACAUGAGGAUCACCCAUGUGGGUUGCGGUAUCGAGAAGGUAAAAUACAAG [Mat - Same State NG 2 - JL mod - D58] (Eterna round: R96, puzzle: Same State NG 2)”, the “apparent KD of MS2 coat protein” value is 28.8 nM in series [3] (input ligand: FMN 200 uM), 26.6 nM in series [3] (setting [4]) and 33.8 nM in series [3] (input ligand: none).
On the same counts, the results for “UUGAAGAAUUAAGGAUAUUGAAUACAUAUGUUUAACAUGAGGAUCACCCAUGUGGGUUGCGGUAUCGAGAAGGUAAAAUAAUAG [Mat - Same State NG 2 - JL mod - D4] (Eterna round: R96, puzzle: Same State NG 2)” are 118 nM, 91.8 nM and 110 nM.
Taken in the same sequence, the figures for “UUGAUGUACUGAGGAUAUCGUGUCGUCUGAUUUUACAUGAGGAUCACCCAUGUGGGUUGUGGUAUCGAGAAGGCAGUUUUCUUA [JR_SSNG2_Sub029] (Eterna round: R96, puzzle: Same State NG 2)” were 50.4 nM, 84.3 nM and 158 nM.
Taken in the same sequence, the figures for “UUGAUUAGAAAUUAACAUGAGGAUCACCCAUGUAUUGGAUCAGAGGAUAUGCAUGUUUGAUUGUAGCAGAAGGCUGAUUGUGGA [JR_SSNG3_Sub028] (Eterna round: R96, puzzle: Same State NG 3)” were 43.2 nM, 29.5 nM and 46.5 nM.
Take “UUGCUCGUGUGAGGAUAUGCCGCCGUUUCGGCUGCAGAAGGUACUACGUUACAUGAGGAUCACCCAUGUCUCUGUUGUUUCGUG [salish99_SSNG1_r04_940] (Eterna round: R96, puzzle: Same State NG 1)”: the “apparent KD of MS2 coat protein” value in series [3] (input ligand: FMN 200 uM) came to 18.1 nM; in series [3] (setting [4]), 13.9 nM; in series [3] (input ligand: none), 16.5 nM.
Taken in the same sequence, the figures for “UUUAGCGUUACAGGAUAUGGUGAGGAUCACCCACUAGAAGGGUAAACAUGUGCGUCGUACAUGAGGAUCACCCAUGUAGGGCGU (Eterna round: R96, puzzle: Same State NG 1)” were 14.4 nM, 13.7 nM and 22.6 nM.
Take “UUUAGUUGCGGGCAGGAUAUGUAUUAAAAUACAUGAGGAUCACCCAUGUGAGACCGAAAAGGUCUACAGAAGGGCCAAUCGCGAC [Laonerce - 20] (puzzle: Same State 2)”: the “apparent KD of MS2 coat protein” value in series [3] (setting [5]) is 16.1 nM; in series [3] (setting [6]), 66 nM; in series [3] (setting [7]), 79.5 nM.
Take “UUUAGUUGCGGGCAGGAUAUGUAUUAAAAUACAUGAGGAUCACCCAUGUGCGGGUAUAACACCCGACAGAAGGGCCAAUCGCAAC [Laonerce - 6] (puzzle: Same State 2)”: the “apparent KD of MS2 coat protein” value in series [3] (setting [5]) came out at 22.2 nM; in series [3] (setting [6]), 142 nM; in series [3] (setting [7]) it was 240 nM.
For the sequence “UUUAUACAUGAGGAUCACCCAUGUCAACGUAGUCGAGGAUAUGGGCAGCCGUGAGGCGUACUAGAAGGCGAAGAGG [JL-ss1-3.08 ViennaUCT mod] (puzzle: Same State 1)”, the “apparent KD of MS2 coat protein” value in series [3] (setting [5]) amounted to 49.7 nM; in series [3] (setting [6]), 38.8 nM; in series [3] (setting [7]), 118 nM.
As to “UUUGCAUGACGAGGAUAUCAUUUAUUUCUUGAUUGAGAAGGCGUUUUUUUUAUUACCUAACAUGAGGAUCACCCAUGUGACAGU [JR_SSNG1_Sub045] (Eterna round: R96, puzzle: Same State NG 1)”, the “apparent KD of MS2 coat protein” value in series [3] (input ligand: FMN 200 uM) was found to be 14.8 nM; in series [3] (setting [4]) it was 19.6 nM; in series [3] (input ligand: none), 18.4 nM.
